Consider four molecules from PMC11997057, “PIN1-SUMO2/3 motif suppresses excessive RNF168 chromatin accumulation and ubiquitin signaling to promote IR resistance” (Nature Communications, 2025).

Experiment [1] addresses PIN1 WW domain (UniProt Q13526). The experiment in a line: GST pull-down from cell lysate. The note with it: reference: myc-RNF168 wild type; sites T208.
Experiment [2] concerns the target PIN1 (UniProt Q13526). The experiment in a line: native mass spectrometry, 1:5 protein:peptide. To be noted: reference: unphosphorylated peptide; sites T208.
Experiment [3] concerns the target T1, full-length PIN1 (recombinant, tag cleaved) (UniProt Q13526 1-163).
T1 construct: peptidyl-prolyl isomerase PIN1, full length; also called recombinant PIN1; tag-cleaved PIN1; source: E. coli Rosetta 2(DE3) pLysS, auto-induction, purified (IMAC), tag cleaved with TEV protease; not shown: His6, N-terminal, cleaved
The experiment in a line: native MS; PIN1 2.5 uM and peptide 12.5 uM (1:5 molar ratio) incubated on ice in 100 mM ammonium acetate pH 6.8; nanoelectrospray, positive mode. The note with it: both partners purified.

Non-standard residues stand in square brackets, D forms with d. No end group written: not given here. pT = C[C@@H](OP(=O)(O)O)[C@H](N)C(=O)O

In the case of RNF168 (from UniProt Q8IYW5) T208A, the “binding against the reference” value in experiment [1] was “weaker”.
On to “RNF168 204-210 (from UniProt Q8IYW5) pT208 peptide”, for which, in experiment [2], the “binding against the reference” value is on record as “stronger”.

B1: unphosphorylated RNF168 peptide S204-K210 (peptide)
peptide: SDPVTPK
notes: end groups not known; also called non-phosphorylated peptide of the T208 motif; source: synthetic peptide, bought: GenScript Biotech
B1: the binding result in experiment [3] is listed as “binds”.

B2: phosphorylated RNF168 peptide S204-K210, SDPV(pT)PK (peptide)
peptide: SDPV[pT]PK
notes: end groups not known; also called phospho-RNF168 peptide; pT208-RNF168 peptide; source: synthetic peptide, bought: GenScript Biotech
Turning to B2, the binding result in experiment [3] is recorded as “binds”.
